Experiments:
Test in all cases: BLI
CCL18_HUMAN = molecular target: T1, CCL18_HUMAN (human, UniProt P55774 21-89)
T1 chain: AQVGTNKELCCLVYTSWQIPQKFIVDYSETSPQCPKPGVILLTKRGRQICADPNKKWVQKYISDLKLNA

CCL21_HUMAN = molecular target: T2, CCL21_HUMAN (human, UniProt O00585 24-134)
T2 chain: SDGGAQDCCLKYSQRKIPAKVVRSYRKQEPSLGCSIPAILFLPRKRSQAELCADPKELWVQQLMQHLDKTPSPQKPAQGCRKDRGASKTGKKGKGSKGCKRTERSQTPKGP

CCL3L1_HUMAN = molecular target: T3, CCL3L1_HUMAN (human, UniProt P16619 24-93)
T3 chain: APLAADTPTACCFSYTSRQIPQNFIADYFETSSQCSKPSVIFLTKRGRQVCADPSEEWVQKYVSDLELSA

CCL19_HUMAN = molecular target: T4, CCL19_HUMAN (human, UniProt Q99731 22-98)
T4 chain: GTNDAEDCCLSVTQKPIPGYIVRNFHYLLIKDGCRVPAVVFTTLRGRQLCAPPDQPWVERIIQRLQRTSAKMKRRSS

CCL5_HUMAN = molecular target: T5, CCL5_HUMAN (human, UniProt P13501 24-91)
T5 chain: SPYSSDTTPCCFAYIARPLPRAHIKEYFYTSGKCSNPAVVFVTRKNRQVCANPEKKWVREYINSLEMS

CCL8_HUMAN = molecular target: T6, CCL8_HUMAN (human, UniProt P80075 24-99)
T6 chain: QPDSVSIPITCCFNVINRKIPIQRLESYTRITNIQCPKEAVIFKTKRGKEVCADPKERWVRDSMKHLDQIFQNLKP

CCL15_HUMAN = molecular target: T7, CCL15_HUMAN (human, UniProt Q16663 22-113)
T7 chain: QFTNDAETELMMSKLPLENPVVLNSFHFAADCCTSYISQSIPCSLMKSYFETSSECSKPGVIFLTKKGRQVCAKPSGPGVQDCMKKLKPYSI

CCL4_HUMAN = molecular target: T8, CCL4_HUMAN (human, UniProt P13236 24-92)
T8 chain: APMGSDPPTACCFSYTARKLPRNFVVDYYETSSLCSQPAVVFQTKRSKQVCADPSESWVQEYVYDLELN

CCL23_HUMAN = molecular target: T9, CCL23_HUMAN (human, UniProt P55773 22-120)
T9 chain: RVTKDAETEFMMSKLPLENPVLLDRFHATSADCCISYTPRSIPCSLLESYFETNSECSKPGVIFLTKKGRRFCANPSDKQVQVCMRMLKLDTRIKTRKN

CCL7_HUMAN = CCL7_HUMAN (human, UniProt P80098 24-99)
CCL27_HUMAN = molecular target: T10, CCL27_HUMAN (human, UniProt Q9Y4X3 25-112)
T10 chain: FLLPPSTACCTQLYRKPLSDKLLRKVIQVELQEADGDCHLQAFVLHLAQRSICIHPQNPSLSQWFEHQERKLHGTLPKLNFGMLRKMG

CCL13_HUMAN = CCL13_HUMAN (human, UniProt Q99616 24-98)
CCL17_HUMAN = molecular target: T11, CCL17_HUMAN (human, UniProt Q92583 24-94)
T11 chain: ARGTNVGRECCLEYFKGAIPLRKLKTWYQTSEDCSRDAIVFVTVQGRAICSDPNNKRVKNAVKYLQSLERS

CCL24_HUMAN = molecular target: T12, CCL24_HUMAN (human, UniProt O00175 27-104)
T12 chain: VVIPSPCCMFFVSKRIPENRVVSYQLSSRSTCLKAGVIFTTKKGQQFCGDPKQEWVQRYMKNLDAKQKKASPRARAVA

CCL3_HUMAN = molecular target: T13, CCL3_HUMAN (human, UniProt P10147 24-92)
T13 chain: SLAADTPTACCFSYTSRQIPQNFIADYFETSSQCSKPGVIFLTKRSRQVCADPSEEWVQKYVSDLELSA

CCL14_HUMAN = molecular target: T14, CCL14_HUMAN (human, UniProt Q16627 22-93)
T14 chain: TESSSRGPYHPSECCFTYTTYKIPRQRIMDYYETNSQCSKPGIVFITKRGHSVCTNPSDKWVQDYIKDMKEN

CCL11_HUMAN = CCL11_HUMAN (human, UniProt P51671 24-97)
CXCL1_HUMAN = CXCL1_HUMAN (human, UniProt P09341 35-107)
CXCL8_HUMAN = CXCL8_HUMAN (human, UniProt P10145 28-99)
CXCL8_HUMAN, sequence (P10145 28-99): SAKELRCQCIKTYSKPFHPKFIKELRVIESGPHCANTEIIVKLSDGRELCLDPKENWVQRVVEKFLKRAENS

CCL11_HUMAN, sequence (P51671 24-97): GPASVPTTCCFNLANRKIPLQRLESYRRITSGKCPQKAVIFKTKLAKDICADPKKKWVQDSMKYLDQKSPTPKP
CCL13_HUMAN, sequence (Q99616 24-98): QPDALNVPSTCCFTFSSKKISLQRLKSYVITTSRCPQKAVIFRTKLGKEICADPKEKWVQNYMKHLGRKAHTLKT
CXCL1_HUMAN, sequence (P09341 35-107): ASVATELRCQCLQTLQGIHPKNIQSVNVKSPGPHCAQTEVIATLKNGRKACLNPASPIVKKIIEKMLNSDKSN
CCL7_HUMAN, sequence (P80098 24-99): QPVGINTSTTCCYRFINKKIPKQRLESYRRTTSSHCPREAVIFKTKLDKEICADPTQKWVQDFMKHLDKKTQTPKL

B1: P1243:G4S:P1156 (designed binder)
chain: RNHTEDNSTEYYDYEEARCACPARHLNNTNGTVLKLLGCHYFCNGTLCTAPDGYPCYNLTAQQVRTLTTYPNTSCAVGVCMKGTCVKNGTMEQCFKTPGGGGSADDDNELFTVQYCGMNCTKDEGGTWTGCTGKKEGCKCYHESGKNYGLCLSTEYTDFSQYGNPSDSEIEAAKPKRSDTLSH
B1 was tested, and the Kd (CCL18_HUMAN) was 0.543 nM, the Kd (CCL21_HUMAN) was 53.8 nM and the Kd (CCL3L1_HUMAN) was 4.06 nM. The Kd (CCL19_HUMAN) was 2.92 nM, the Kd (CCL5_HUMAN) was 8.95 nM and the Kd (CCL8_HUMAN) was 381 nM. For the same binder, the Kd (CCL15_HUMAN) was 8.71 nM, the Kd (CCL4_HUMAN) was 19.4 nM and the Kd (CCL23_HUMAN) was 0.632 nM. The Kd (CCL7_HUMAN) was 49 nM, the Kd (CCL27_HUMAN) was 24.4 nM and the Kd (CCL13_HUMAN) was 1.33 nM. The Kd (CCL17_HUMAN) was 3.51 nM, the Kd (CCL24_HUMAN) was 16.4 nM and the Kd (CCL3_HUMAN) was 16.4 nM. For the same binder, the Kd (CCL14_HUMAN) was 1.99 nM, the Kd (CCL11_HUMAN) was 19.7 nM and the Kd (CXCL1_HUMAN) was 17.4 nM. It also gave a Kd (CXCL8_HUMAN) of 7.63 nM.
